Reference: PMC3706335, “Biophysical characterization and crystal structure of the Feline Immunodeficiency Virus p15 matrix protein” (Retrovirology, 2013)
Positions count from the first letter of the chain named.

B1: FIV p15-Δ120, C-terminal-truncated p15 (truncated after Ser120) with C-terminal 6-His tag (domain or fragment)
chain: MGNGQGRDWKMAIKRCSNVAVGVGGKSKKFGEGNFRWAIRMANVSTGREPGDIPETLDQLRLVICDLQERREKFGSSKEIDMAIVTLKVFAVAGLLNMTVSTAAAAENMYSQMGLDTRPS
notes: matrix protein p15 of the Gag polyprotein of Feline Immunodeficiency Virus, Petaluma strain, truncated after Ser120 (lacks the last 14 residues); residues 2 to 120 seen in the crystal; also called truncated FIV p15; not shown: His6, C-terminal, kept
B2: FIV p15-Δ120-R40S (domain or fragment)
chain: B1 chain with R40S
notes: matrix protein p15 of the Gag polyprotein of Feline Immunodeficiency Virus, truncated after Ser120 as m3, with Arg40 mutated to serine; Made from the truncated p15 construct
B3: FIV p15 matrix protein, full-length, with C-terminal 6-His tag (natural protein)
chain: MGNGQGRDWKMAIKRCSNVAVGVGGKSKKFGEGNFRWAIRMANVSTGREPGDIPETLDQLRLVICDLQERREKFGSSKEIDMAIVTLKVFAVAGLLNMTVSTAAAAENMYSQMGLDTRPSMKEAGGKEEGPPQAY
notes: matrix protein p15, the N-terminal subunit of the Gag polyprotein of Feline Immunodeficiency Virus, Petaluma strain (plasmid FIV-34TF10); not myristoylated; also called p15-His; full-length p15; not shown: His6, C-terminal, kept

Tests used:
[1] = target: the molecule itself; experiment: cross-linking; BS3, room temperature, SDS-PAGE; protein at 6 mg/ml in 50 mM MES pH 6
[2] = target: the molecule itself; experiment: ITC; dilution experiment, dimer to monomers: p15 at 6 mg/ml (375 μM) in 50 mM MES pH 6 injected into buffer alone, 25°C, dimer dissociation model
[3] = target: the molecule itself; experiment: SEC-MALS; 0.2 ml of his-tagged p15 at 6 mg/ml in 50 mM MES pH 6 on Superdex 200 10/30 in 50 mM MES pH 6

| Protein | binding result [1] | Kd [2] [µM] | stoichiometry N [3] |
| --- | --- | --- | --- |
| B1 | binds | – | – |
| B2 | binds | – | – |
| B3 | – | ~10 | 2 |
